Experimental data reported in patent publication US20230287489.

Target: T1, human placental RNase inhibitor (NEB, Cat #M0307S), P13489
T1 chain: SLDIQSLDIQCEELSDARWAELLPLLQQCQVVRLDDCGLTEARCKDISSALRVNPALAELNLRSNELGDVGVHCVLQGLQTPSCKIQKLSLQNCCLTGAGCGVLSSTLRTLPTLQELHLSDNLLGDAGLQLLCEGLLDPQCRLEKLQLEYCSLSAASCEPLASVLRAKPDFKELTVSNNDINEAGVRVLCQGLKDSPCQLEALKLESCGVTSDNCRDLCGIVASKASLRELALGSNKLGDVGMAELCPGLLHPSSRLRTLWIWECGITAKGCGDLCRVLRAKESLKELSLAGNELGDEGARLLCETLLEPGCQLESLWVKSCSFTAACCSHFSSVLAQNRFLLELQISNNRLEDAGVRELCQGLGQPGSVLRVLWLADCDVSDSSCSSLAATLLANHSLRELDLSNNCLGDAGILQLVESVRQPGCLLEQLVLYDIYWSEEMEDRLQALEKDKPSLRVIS

B1: recombinant wild-type human RNase4 (hRNase 4), periplasmically expressed as an MBP fusion protein (protein)
chain: QDGMYQRFLRQHVHPEETGGSDRYCNLMMQRRKMTLYHCKRFNTFIHEDIWNIRSICSTTNIQCKNGKMNCHEGVVKVTDCRDTGSSRAPNCRYRAIASTRRVVIACEGNPQVPVHFDG
  cleavage of a target RNA oligonucleotide (SEQ ID NO: 23) by hRNase 4, LC-MS/MS: cleavage of the target oligonucleotide was inhibited following preincubation of hRNase 4 with human placental RNase inhibitor
